This is an account of results in patent US20190359662A1.

Among the targets are hNav1.1 (human) (UniProt P35498); hNav1.2 (human) (UniProt Q99250); hNav1.3 (human) (UniProt Q9NY46); hNav1.4 (human) (UniProt P35499); hNav1.5 (human) (UniProt Q14524); hNav1.6 (human) (UniProt Q9UQD0); hNav1.8 (human) (UniProt Q9Y5Y9).
Holding throughout (experiment): cell-based or functional assay

Sequence of hNav1.2 (human) (Q99250 whole entry): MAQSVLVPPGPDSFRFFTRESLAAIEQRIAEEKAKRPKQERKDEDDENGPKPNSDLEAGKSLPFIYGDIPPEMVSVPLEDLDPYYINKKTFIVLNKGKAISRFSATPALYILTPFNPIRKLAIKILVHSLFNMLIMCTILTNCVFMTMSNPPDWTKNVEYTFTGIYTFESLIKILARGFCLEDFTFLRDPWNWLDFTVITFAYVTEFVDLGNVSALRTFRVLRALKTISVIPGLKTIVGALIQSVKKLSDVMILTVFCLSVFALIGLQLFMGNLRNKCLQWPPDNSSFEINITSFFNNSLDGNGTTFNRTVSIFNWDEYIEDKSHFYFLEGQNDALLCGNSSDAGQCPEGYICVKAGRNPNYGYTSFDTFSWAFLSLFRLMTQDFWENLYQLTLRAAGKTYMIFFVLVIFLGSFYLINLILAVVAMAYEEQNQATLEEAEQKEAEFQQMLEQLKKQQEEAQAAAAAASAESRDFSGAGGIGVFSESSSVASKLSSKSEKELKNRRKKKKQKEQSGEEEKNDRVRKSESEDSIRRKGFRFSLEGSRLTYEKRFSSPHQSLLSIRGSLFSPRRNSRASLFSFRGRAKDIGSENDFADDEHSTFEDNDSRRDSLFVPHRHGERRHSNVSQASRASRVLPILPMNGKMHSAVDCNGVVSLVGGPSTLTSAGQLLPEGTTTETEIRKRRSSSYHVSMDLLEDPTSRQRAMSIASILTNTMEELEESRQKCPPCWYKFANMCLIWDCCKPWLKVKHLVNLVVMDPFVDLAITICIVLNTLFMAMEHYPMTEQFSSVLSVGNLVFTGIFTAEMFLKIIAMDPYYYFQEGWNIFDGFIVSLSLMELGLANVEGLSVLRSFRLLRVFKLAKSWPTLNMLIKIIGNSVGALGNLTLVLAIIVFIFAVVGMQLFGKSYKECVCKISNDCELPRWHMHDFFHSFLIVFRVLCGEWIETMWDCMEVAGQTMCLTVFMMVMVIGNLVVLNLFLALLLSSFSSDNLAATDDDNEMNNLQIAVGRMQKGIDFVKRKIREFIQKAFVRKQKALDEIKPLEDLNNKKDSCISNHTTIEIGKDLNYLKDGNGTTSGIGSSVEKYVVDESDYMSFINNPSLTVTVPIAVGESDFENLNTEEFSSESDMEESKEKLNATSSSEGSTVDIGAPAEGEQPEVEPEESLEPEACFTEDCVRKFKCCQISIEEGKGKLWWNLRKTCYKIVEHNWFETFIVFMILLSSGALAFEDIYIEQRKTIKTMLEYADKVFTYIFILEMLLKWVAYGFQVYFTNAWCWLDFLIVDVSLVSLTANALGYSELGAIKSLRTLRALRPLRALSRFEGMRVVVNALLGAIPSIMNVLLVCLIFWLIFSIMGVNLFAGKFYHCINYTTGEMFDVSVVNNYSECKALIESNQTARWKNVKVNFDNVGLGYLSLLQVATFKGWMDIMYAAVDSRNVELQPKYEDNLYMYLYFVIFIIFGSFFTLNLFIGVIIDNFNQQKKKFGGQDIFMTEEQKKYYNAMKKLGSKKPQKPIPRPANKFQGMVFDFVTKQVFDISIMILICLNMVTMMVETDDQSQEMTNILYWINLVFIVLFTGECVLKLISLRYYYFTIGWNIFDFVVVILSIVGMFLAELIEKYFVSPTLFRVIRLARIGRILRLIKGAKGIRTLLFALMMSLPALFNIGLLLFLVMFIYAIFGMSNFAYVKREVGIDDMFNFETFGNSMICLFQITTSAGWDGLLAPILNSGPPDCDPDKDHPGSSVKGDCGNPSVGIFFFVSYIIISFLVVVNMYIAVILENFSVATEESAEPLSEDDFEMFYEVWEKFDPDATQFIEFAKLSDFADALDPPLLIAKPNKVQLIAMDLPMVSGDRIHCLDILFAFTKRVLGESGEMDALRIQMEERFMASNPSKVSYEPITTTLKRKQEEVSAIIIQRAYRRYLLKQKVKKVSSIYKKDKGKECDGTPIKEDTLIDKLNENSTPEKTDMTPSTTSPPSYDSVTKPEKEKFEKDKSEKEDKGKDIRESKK
Sequence of hNav1.5 (human) (Q14524 whole entry): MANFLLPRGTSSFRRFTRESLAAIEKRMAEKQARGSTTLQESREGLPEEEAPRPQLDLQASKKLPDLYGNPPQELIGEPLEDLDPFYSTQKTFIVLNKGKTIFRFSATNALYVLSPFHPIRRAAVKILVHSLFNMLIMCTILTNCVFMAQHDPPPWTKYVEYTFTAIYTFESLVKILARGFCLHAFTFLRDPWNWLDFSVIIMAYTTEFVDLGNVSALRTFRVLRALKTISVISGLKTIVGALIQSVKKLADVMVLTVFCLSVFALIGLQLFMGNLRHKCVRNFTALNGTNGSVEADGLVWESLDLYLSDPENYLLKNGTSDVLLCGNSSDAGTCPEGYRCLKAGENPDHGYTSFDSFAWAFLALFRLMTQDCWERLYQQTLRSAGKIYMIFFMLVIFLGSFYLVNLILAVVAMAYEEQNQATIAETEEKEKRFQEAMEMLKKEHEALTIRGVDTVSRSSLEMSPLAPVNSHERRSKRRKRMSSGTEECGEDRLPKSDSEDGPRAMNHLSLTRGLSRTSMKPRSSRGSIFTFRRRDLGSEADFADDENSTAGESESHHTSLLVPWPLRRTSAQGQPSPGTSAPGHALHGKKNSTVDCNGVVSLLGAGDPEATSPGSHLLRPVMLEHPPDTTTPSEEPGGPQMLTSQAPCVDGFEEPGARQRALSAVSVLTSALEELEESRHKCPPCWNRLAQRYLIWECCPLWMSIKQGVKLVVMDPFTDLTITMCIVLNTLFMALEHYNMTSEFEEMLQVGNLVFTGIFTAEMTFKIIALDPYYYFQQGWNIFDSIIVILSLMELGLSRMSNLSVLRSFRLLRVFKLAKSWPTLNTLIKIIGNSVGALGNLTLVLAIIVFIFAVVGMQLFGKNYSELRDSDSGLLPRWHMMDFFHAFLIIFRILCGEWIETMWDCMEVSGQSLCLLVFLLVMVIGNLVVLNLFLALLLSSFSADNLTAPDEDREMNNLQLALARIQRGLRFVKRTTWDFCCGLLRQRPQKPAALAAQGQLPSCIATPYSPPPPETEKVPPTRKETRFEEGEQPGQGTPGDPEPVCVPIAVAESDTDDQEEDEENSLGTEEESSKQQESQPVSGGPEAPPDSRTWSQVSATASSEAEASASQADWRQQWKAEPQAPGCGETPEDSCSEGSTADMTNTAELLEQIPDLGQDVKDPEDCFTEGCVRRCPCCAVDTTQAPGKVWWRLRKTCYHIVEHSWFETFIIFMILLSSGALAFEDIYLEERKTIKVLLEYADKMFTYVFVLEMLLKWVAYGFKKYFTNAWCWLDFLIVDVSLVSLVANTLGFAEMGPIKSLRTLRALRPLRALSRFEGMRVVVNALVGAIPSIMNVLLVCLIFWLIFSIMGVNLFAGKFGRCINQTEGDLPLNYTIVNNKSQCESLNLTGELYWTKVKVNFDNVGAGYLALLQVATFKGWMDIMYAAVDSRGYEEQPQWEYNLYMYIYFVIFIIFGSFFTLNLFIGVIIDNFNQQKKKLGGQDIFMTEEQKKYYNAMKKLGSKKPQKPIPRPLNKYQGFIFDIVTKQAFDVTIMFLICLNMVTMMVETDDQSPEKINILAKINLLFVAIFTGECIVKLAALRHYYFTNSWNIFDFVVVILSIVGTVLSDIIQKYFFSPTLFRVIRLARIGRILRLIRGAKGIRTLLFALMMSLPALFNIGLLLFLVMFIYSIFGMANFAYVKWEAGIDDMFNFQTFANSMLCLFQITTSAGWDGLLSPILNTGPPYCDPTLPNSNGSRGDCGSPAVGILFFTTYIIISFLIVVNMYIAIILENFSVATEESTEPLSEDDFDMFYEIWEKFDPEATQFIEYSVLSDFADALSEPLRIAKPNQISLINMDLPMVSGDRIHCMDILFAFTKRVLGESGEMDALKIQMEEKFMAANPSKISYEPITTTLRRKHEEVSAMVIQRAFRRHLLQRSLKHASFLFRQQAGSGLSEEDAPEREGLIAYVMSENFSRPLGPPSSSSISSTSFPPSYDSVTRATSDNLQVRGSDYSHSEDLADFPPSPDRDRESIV

As for Ac-Pnc1a (peptide), the IC50, membrane potential assay with hNav1.1 (human) was 23 µM; with hNav1.2 (human) it was 5 µM; with hNav1.3 (human), 8 µM; with hNav1.4 (human), 14 µM; in the assay with hNav1.5 (human), above 30 µM; with hNav1.6 (human), 16 µM. Also, in the assay with hNav1.8 (human), the IC50, membrane potential assay was above 30 µM.

Regarding Pnc1a-CONH2 (peptide), the IC50, membrane potential assay with hNav1.1 (human) is 8 µM; in the assay with hNav1.2 (human), 3 µM; in the assay with hNav1.3 (human) it was 7 µM; with hNav1.4 (human), 16 µM; with hNav1.5 (human) it was above 30 µM; with hNav1.6 (human) it was 20 µM. This substance returned an IC50, membrane potential assay with hNav1.8 (human) above 30 µM.
